From patent US20090220527A1 (MEDLMMUNE, published 2009) come the findings set out here.

The target in experiment [1] is T1, human EphA2 (form used in the affinity measurements not stated) (human, UniProt P29317 24-534, limits assumed).
T1 construct: The only EphA2 reagent it describes is human EphA2-Fc
The experiment is described as follows: surface plasmon resonance (BIAcore 3000), purified scFv. On the procedure: 2A4, 2E7 and 12E2 as well as parental EA2 scFv and humanized 4H5 scFv were induced for expression in E. coli in a 1 L culture volume. The supernatants containing soluble, secreted scFv fragments were spun to remove cellular debris then passed over an anti-FLAG column (Sigma) to purify and isolate the variant proteins. The purified affinity optimized variants were analyzed by surface plasmon resonance detection using a BIAcore 3000 instrument (Pharmacia Biosensor, Uppsala, Sweden). […] (see FIG. 5).

Experiment [2] deals with T1, human EphA2 (form used in the affinity …). The experiment is described as follows: method not stated; humanized clone from framework shuffling, reference chimeric Fab EA2.

T1 sequence (P29317 24-534 limits assumed): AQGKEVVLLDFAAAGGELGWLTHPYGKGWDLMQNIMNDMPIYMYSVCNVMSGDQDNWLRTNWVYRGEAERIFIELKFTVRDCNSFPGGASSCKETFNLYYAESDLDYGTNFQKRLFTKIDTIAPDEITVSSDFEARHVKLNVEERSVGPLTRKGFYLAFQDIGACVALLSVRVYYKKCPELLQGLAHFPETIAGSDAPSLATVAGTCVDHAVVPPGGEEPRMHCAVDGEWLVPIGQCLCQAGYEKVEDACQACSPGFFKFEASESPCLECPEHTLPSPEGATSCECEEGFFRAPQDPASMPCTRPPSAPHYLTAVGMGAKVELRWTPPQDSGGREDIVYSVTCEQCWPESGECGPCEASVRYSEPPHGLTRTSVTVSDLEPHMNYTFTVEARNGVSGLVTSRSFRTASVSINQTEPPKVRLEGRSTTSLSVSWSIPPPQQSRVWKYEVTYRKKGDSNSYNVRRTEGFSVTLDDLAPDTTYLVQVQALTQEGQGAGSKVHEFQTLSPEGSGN

B1: 2A4 scFv (affinity optimized combinatorial variant of humanized 4H5) (scFv)
scFv: QVQLLESGGGLVQPGGSLRLSCAASGFTFSSYTMSWVRQAPGQALEWMGTISSRGTYTYYPDSVKGRFTISRDNAKNSLYLQMNSLRAEDTAVYYCAREAIFTHWGRGTLVTVSSGGGGSGGGGSGGGGSDIQLTQSPSSLSASVGDRVTITCKASQDINNYHSWYQQKPGQAPRLLIYRANRLVDGVPDRFSGSGYGTDFTLTINNIESEDAAYYFCLKYNVFPYTFGQGTKVEIK
Consider B1, for which, in experiment [1], the affinity, expressed as Kd, was 5.6 nM and the kon (usually the second-order rate constant of association) was 652000 M⁻¹ s⁻¹.

B2: 2E7 scFv (affinity optimized combinatorial variant of humanized 4H5) (scFv)
scFv: QVQLLESGGGLVQPGGSLRLSCAASGFTFSSYTMSWVRQAPGQALEWMGTISSRGTYTYYPDSVKGRFTISRDNAKNSLYLQMNSLRAEDTAVYYCAREAIFTHWGRGTLVTVSSGGGGSGGGGSGGGGSDIQLTQSPSSLSASVGDRVTITCKASQDINNYGSWYQQKPGQAPRLLIYRANRLVDGVPDRFSGSGYGTDFTLTINNIESEDAAYYFCLKYNRFPYTFGQGTKVEIK
In the case of B2, the kon in experiment [1] turned out to be 563000 M⁻¹ s⁻¹.

B3: 12E2 scFv (affinity optimized combinatorial variant of humanized 4H5) (scFv)
scFv: QVQLLESGGGLVQPGGSLRLSCAASGFTFSSYTMSWVRQAPGQALEWMGTISSRGTYTYYPDSVKGRFTISRDNAKNSLYLQMNSLRAEDTAVYYCAREAIFTYWGRGTLVTVSSGGGGSGGGGSGGGGSDIQLTQSPSSLSASVGDRVTITCKASQDINNYLSWYQQKPGQAPRLLIYRANRLFDGVPDRFSGSGYGTDFTLTINNIESEDAAYYFCLKYDRFPYTFGQGTKVEIK
Turning to B3, the kon in experiment [1] was found to be 518000 M⁻¹ s⁻¹.

B4: humanized clone 4H5 (from framework shuffling of murine mAb EA2; format in this comparison not stated) (antibody, V domains shown)
VH: QVQLLESGGGLVQPGGSLRLSCAASGFTFSSYTMSWVRQAPGQALEWMGTISSGGTYTYYPDSVKGRFTISRDNAKNSLYLQMNSLRAEDTAVYYCAREAIFTYWGRGTLVTVSS
VL: DIQLTQSPSSLSASVGDRVTITCKASQDINNYLSWYQQKPGQAPRLLIYRANRLVDGVPDRFSGSGYGTDFTLTINNIESEDAAYYFCLKYDVFPYTFGQGTKVEIK
notes: Compared with chimeric Fab EA2; also called humanized Mab 4H5
B4: the “fold increase of affinity against chimeric Fab EA2” value in experiment [2] is around 20 fold.
